Laboratory results published in PMC10786891, “Massively parallel profiling of RNA-targeting CRISPR-Cas13d”.

T1: EsCas13d, nuclease-dead (Eubacterium siraeum, UniProt B0MS50, R295A;H300A;R849A;H854A)
T1 sequence: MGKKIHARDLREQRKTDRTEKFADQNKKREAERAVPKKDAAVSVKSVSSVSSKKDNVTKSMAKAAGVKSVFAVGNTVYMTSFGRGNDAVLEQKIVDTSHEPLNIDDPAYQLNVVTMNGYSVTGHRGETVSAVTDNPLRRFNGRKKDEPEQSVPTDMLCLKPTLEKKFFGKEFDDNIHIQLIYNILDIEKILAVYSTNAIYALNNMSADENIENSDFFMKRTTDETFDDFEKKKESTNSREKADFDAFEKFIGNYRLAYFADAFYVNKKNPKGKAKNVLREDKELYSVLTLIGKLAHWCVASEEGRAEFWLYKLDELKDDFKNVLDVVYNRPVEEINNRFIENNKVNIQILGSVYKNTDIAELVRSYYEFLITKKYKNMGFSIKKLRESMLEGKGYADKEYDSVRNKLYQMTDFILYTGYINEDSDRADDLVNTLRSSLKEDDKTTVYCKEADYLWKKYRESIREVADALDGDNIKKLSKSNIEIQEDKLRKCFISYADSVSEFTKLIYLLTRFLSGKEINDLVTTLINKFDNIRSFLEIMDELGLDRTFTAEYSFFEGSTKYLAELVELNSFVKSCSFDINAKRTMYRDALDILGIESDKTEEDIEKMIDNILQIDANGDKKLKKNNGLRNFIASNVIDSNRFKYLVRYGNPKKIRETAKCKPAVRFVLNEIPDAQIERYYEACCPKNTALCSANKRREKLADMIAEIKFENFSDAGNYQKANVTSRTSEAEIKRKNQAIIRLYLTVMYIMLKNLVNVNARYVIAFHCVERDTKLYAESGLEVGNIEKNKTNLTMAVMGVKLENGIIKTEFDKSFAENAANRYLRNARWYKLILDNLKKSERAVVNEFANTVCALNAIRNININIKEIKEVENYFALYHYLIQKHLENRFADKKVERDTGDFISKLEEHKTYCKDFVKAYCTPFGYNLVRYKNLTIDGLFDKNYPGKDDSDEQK

B1: target 1 insU 3' of 12,insA 3' of 7 (mixed)
RNA 1: CACCCGUGCAAAAAUGCAGGGGUCUAAAACUGAGCGGAUAACCUCUCUAUGG
RNA 2: GGGAAUGGAUCCACAUCUACGAAUUCGUACCAUAGAGAGGUUUAUCACGCUCACCGAGAUCGGAAGAGCACACGU
B2: target 1 MT 5'PFS CCG 3'PFS AUU (mixed)
RNA 1: CACCCGUGCAAAAAUGCAGGGGUCUAAAACUGAGCGGAUAACCUCUCUAUGG
RNA 2: GGGAAUGGAUCCACAUCUACGAAUUCCCGCCAUAGAGAGGUUAUCCGCUCAAUUAGAUCGGAAGAGCACACGU
B3: target 1 C7G,C21A (mixed)
RNA 1: CACCCGUGCAAAAAUGCAGGGGUCUAAAACUGAGCGGAUAACCUCUCUAUGG
RNA 2: GGGAAUGGAUCCACAUCUACGAAUUCGUACAAUAGAGAGGUUAUGCGCUCACCGAGAUCGGAAGAGCACACGU
B4: target 1 MT 5'PFS GAC 3'PFS CUA (mixed)
RNA 1: CACCCGUGCAAAAAUGCAGGGGUCUAAAACUGAGCGGAUAACCUCUCUAUGG
RNA 2: GGGAAUGGAUCCACAUCUACGAAUUCGACCCAUAGAGAGGUUAUCCGCUCACUAAGAUCGGAAGAGCACACGU
B5: target 1 MT 5'PFS GAC 3'PFS CUU (mixed)
RNA 1: CACCCGUGCAAAAAUGCAGGGGUCUAAAACUGAGCGGAUAACCUCUCUAUGG
RNA 2: GGGAAUGGAUCCACAUCUACGAAUUCGACCCAUAGAGAGGUUAUCCGCUCACUUAGAUCGGAAGAGCACACGU
B6: target 1 MT 5'PFS GGC 3'PFS CGG (mixed)
RNA 1: CACCCGUGCAAAAAUGCAGGGGUCUAAAACUGAGCGGAUAACCUCUCUAUGG
RNA 2: GGGAAUGGAUCCACAUCUACGAAUUCGGCCCAUAGAGAGGUUAUCCGCUCACGGAGAUCGGAAGAGCACACGU
B7: target 1 MT 5'PFS GUU 3'PFS CCC (mixed)
RNA 1: CACCCGUGCAAAAAUGCAGGGGUCUAAAACUGAGCGGAUAACCUCUCUAUGG
RNA 2: GGGAAUGGAUCCACAUCUACGAAUUCGUUCCAUAGAGAGGUUAUCCGCUCACCCAGAUCGGAAGAGCACACGU
B8: target 1 MT 5'PFS UGG 3'PFS UAA (mixed)
RNA 1: CACCCGUGCAAAAAUGCAGGGGUCUAAAACUGAGCGGAUAACCUCUCUAUGG
RNA 2: GGGAAUGGAUCCACAUCUACGAAUUCUGGCCAUAGAGAGGUUAUCCGCUCAUAAAGAUCGGAAGAGCACACGU
B9: target 1 MT 5'PFS GUU 3'PFS CCG (mixed)
RNA 1: CACCCGUGCAAAAAUGCAGGGGUCUAAAACUGAGCGGAUAACCUCUCUAUGG
RNA 2: GGGAAUGGAUCCACAUCUACGAAUUCGUUCCAUAGAGAGGUUAUCCGCUCACCGAGAUCGGAAGAGCACACGU
B10: target 1 MT 5'PFS GAC 3'PFS CUG (mixed)
RNA 1: CACCCGUGCAAAAAUGCAGGGGUCUAAAACUGAGCGGAUAACCUCUCUAUGG
RNA 2: GGGAAUGGAUCCACAUCUACGAAUUCGACCCAUAGAGAGGUUAUCCGCUCACUGAGAUCGGAAGAGCACACGU
B11: target 1 MT 5'PFS UAA 3'PFS CGG (mixed)
RNA 1: CACCCGUGCAAAAAUGCAGGGGUCUAAAACUGAGCGGAUAACCUCUCUAUGG
RNA 2: GGGAAUGGAUCCACAUCUACGAAUUCUAACCAUAGAGAGGUUAUCCGCUCACGGAGAUCGGAAGAGCACACGU
B12: target 1 MT 5'PFS UAA 3'PFS CGA (mixed)
RNA 1: CACCCGUGCAAAAAUGCAGGGGUCUAAAACUGAGCGGAUAACCUCUCUAUGG
RNA 2: GGGAAUGGAUCCACAUCUACGAAUUCUAACCAUAGAGAGGUUAUCCGCUCACGAAGAUCGGAAGAGCACACGU
B13: target 1 MT 5'PFS GCU 3'PFS CGU (mixed)
RNA 1: CACCCGUGCAAAAAUGCAGGGGUCUAAAACUGAGCGGAUAACCUCUCUAUGG
RNA 2: GGGAAUGGAUCCACAUCUACGAAUUCGCUCCAUAGAGAGGUUAUCCGCUCACGUAGAUCGGAAGAGCACACGU
B14: target 1 MT 5'PFS UAA 3'PFS AAC (mixed)
RNA 1: CACCCGUGCAAAAAUGCAGGGGUCUAAAACUGAGCGGAUAACCUCUCUAUGG
RNA 2: GGGAAUGGAUCCACAUCUACGAAUUCUAACCAUAGAGAGGUUAUCCGCUCAAACAGAUCGGAAGAGCACACGU
B15: target 1 MT 5'PFS GUA 3'PFS CUA (mixed)
RNA 1: CACCCGUGCAAAAAUGCAGGGGUCUAAAACUGAGCGGAUAACCUCUCUAUGG
RNA 2: GGGAAUGGAUCCACAUCUACGAAUUCGUACCAUAGAGAGGUUAUCCGCUCACUAAGAUCGGAAGAGCACACGU
B16: target 1 MT 5'PFS UAA 3'PFS AAU (mixed)
RNA 1: CACCCGUGCAAAAAUGCAGGGGUCUAAAACUGAGCGGAUAACCUCUCUAUGG
RNA 2: GGGAAUGGAUCCACAUCUACGAAUUCUAACCAUAGAGAGGUUAUCCGCUCAAAUAGAUCGGAAGAGCACACGU
B17: target 1 MT 5'PFS UAA 3'PFS AAA (mixed)
RNA 1: CACCCGUGCAAAAAUGCAGGGGUCUAAAACUGAGCGGAUAACCUCUCUAUGG
RNA 2: GGGAAUGGAUCCACAUCUACGAAUUCUAACCAUAGAGAGGUUAUCCGCUCAAAAAGAUCGGAAGAGCACACGU
B18: target 1 MT 5'PFS GUU 3'PFS CCA (mixed)
RNA 1: CACCCGUGCAAAAAUGCAGGGGUCUAAAACUGAGCGGAUAACCUCUCUAUGG
RNA 2: GGGAAUGGAUCCACAUCUACGAAUUCGUUCCAUAGAGAGGUUAUCCGCUCACCAAGAUCGGAAGAGCACACGU
B19: target 1 U11C,C21U (mixed)
RNA 1: CACCCGUGCAAAAAUGCAGGGGUCUAAAACUGAGCGGAUAACCUCUCUAUGG
RNA 2: GGGAAUGGAUCCACAUCUACGAAUUCGUACUAUAGAGAGGCUAUCCGCUCACCGAGAUCGGAAGAGCACACGU
B20: target 1 MT 5'PFS GUU 3'PFS CCU (mixed)
RNA 1: CACCCGUGCAAAAAUGCAGGGGUCUAAAACUGAGCGGAUAACCUCUCUAUGG
RNA 2: GGGAAUGGAUCCACAUCUACGAAUUCGUUCCAUAGAGAGGUUAUCCGCUCACCUAGAUCGGAAGAGCACACGU
B21: target 1 MT 5'PFS GCA 3'PFS ACA (mixed)
RNA 1: CACCCGUGCAAAAAUGCAGGGGUCUAAAACUGAGCGGAUAACCUCUCUAUGG
RNA 2: GGGAAUGGAUCCACAUCUACGAAUUCGCACCAUAGAGAGGUUAUCCGCUCAACAAGAUCGGAAGAGCACACGU
B22: target 1 MT 5'PFS GUA 3'PFS CUG (mixed)
RNA 1: CACCCGUGCAAAAAUGCAGGGGUCUAAAACUGAGCGGAUAACCUCUCUAUGG
RNA 2: GGGAAUGGAUCCACAUCUACGAAUUCGUACCAUAGAGAGGUUAUCCGCUCACUGAGAUCGGAAGAGCACACGU
B23: target 1 MT 5'PFS GUA 3'PFS CUC (mixed)
RNA 1: CACCCGUGCAAAAAUGCAGGGGUCUAAAACUGAGCGGAUAACCUCUCUAUGG
RNA 2: GGGAAUGGAUCCACAUCUACGAAUUCGUACCAUAGAGAGGUUAUCCGCUCACUCAGAUCGGAAGAGCACACGU
B24: target 1 MT 5'PFS GAC 3'PFS CUC (mixed)
RNA 1: CACCCGUGCAAAAAUGCAGGGGUCUAAAACUGAGCGGAUAACCUCUCUAUGG
RNA 2: GGGAAUGGAUCCACAUCUACGAAUUCGACCCAUAGAGAGGUUAUCCGCUCACUCAGAUCGGAAGAGCACACGU

The binders below were run against T1, EsCas13d, nuclease-dead (assay: crRNA (strand 1, pre-loaded); Mg2+; 40 mM Tris-HCl pH 7.5, 150 mM NaCl, 6 mM MgCl2, 1 mM DTT, 0.1% Tween-20, 0.2 mg/ml BSA; 25 C; 10 min per concentration, then washed). Settings: tags: His6-TwinStrep-SUMO cleaved; N-terminal SNAP kept (SNAP-Surface 488); label: 3' end held by stalled T7 RNA polymerase.
In the case of B1, the Kd is reported as 5.36 ± 0.2 nM.
For B2, the Kd was 3.75 ± 1.75 nM.
In the case of B3, the Kd is reported as 30 ± 2.3 nM.
B4 was tested, and the Kd was 15.5 ± 5 nM.
With B5 the Kd was 12.1 ± 3.65 nM.
Binder B6 has a Kd of 27.5 ± 5.5 nM.
Work on B7 yielded a Kd of 26.5 ± 8.5 nM.
With B8 the Kd was 79.5 ± 27.5 nM.
B9 gave a Kd of 11.2 ± 1.55 nM.
For B10, the Kd was 19 ± 6.5 nM.
B11 showed a Kd of 55.5 ± 17 nM.
Work on B12 yielded a Kd of 50 ± 23 nM.
B13 showed a Kd of 33.5 ± 8 nM.
With B14 the Kd was 40 ± 11 nM.
With B15 the Kd was 10.2 ± 0.7 nM.
In the case of B16, the Kd is reported as 55 ± 16 nM.
With B17 the Kd was 47 ± 15.5 nM.
Binder B18 has a Kd of 34 ± 8 nM.
B19 gave a Kd of 9.9 ± 0.4 nM.
B20 gave a Kd of 11.6 ± 1.9 nM.
B21 was tested, and the Kd was 25.5 ± 4.5 nM.
B22 showed a Kd of 7.89 ± 0.47 nM.
B23 gave a Kd of 13.8 ± 1.15 nM.
B24 was tested, and the Kd was 24 ± 10 nM.
